Biological target: T1, mSos1 (human (endogenous in A549)), Q07889
T1 chain: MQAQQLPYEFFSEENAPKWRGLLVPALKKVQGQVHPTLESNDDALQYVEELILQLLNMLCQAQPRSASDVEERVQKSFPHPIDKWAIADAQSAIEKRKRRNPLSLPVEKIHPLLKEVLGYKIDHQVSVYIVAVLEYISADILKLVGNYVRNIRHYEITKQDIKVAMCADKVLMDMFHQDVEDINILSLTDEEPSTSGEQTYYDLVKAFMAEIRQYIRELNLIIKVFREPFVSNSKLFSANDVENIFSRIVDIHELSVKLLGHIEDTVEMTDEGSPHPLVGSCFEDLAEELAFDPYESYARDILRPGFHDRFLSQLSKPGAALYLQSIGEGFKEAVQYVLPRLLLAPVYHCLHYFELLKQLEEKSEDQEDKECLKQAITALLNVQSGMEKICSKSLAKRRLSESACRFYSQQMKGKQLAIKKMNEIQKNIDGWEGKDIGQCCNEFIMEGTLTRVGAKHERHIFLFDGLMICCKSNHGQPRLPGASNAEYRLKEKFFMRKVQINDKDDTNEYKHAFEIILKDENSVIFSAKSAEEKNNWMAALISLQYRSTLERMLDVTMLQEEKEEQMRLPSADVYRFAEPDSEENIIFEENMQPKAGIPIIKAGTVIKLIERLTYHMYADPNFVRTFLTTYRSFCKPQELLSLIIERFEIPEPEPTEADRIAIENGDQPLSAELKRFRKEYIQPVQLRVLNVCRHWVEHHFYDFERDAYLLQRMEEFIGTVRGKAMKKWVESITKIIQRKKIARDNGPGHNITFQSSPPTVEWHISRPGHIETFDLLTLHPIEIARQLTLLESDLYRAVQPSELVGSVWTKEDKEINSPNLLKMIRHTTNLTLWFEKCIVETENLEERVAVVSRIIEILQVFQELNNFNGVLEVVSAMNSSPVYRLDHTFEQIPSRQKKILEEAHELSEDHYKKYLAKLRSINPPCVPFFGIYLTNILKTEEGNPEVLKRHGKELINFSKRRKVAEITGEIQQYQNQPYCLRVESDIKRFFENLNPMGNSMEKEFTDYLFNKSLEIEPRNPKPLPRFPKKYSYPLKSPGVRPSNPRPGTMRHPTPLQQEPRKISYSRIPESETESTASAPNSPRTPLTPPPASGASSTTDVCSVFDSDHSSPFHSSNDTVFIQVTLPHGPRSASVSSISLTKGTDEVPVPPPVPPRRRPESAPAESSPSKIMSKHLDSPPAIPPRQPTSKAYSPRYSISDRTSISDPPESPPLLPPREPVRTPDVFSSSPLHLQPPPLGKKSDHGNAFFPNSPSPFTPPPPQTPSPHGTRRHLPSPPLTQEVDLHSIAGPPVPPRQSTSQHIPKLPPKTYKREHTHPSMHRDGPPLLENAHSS
Assay: co-IP; A549 and A549 + ITSN-1s (stable myc-ITSN-1s) cell lysates, 500 ug total protein, lysis buffer 50 mM Tris-HCl pH 8.0, 150 mM NaCl, 1 % NP-40; IP with 3 ug mSos1 or Cbl Ab and protein A/G, WB with Rac1 or Eps8 Ab; densitometry as percentage of control
Conditions: remark: other sources report otherwise

percent decrease of the co-precipitated complex in A549 + ITSN-1s cells against A549 cells: 54%
B1: Eps8, Q12929 1-822 (natural protein)
chain: MNGHISNHPSSFGMYPSQMNGYGSSPTFSQTDREHGSKTSAKALYEQRKNYARDSVSSVSDISQYRVEHLTTFVLDRKDAMITVDDGIRKLKLLDAKGKVWTQDMILQVDDRAVSLIDLESKNELENFPLNTIQHCQAVMHSCSYDSVLALVCKEPTQNKPDLHLFQCDEVKANLISEDIESAISDSKGGKQKRRPDALRMISNADPSIPPPPRAPAPAPPGTVTQVDVRSRVAAWSAWAADQGDFEKPRQYHEQEETPEMMAARIDRDVQILNHILDDIEFFITKLQKAAEAFSELSKRKKNKKGKRKGPGEGVLTLRAKPPPPDEFLDCFQKFKHGFNLLAKLKSHIQNPSAADLVHFLFTPLNMVVQATGGPELASSVLSPLLNKDTIDFLNYTVNGDERQLWMSLGGTWMKARAEWPKEQFIPPYVPRFRNGWEPPMLNFMGATMEQDLYQLAESVANVAEHQRKQEIKRLSTEHSSVSEYHPADGYAFSSNIYTRGSHLDQGEAAVAFKPTSNRHIDRNYEPLKTQPKKYAKSKYDFVARNNSELSVLKDDILEILDDRKQWWKVRNASGDSGFVPNNILDIVRPPESGLGRADPPYTHTIQKQRMEYGPRPADTPPAPSPPPTPAPVPVPLPPSTPAPVPVSKVPANITRQNSSSSDSGGSIVRDSQRHKQLPVDRRKSQMEEVQDELIHRLTIGRSAAQKKFHVPRQNVPVINITYDSTPEDVKTWLQSKGFNPVTVNSLGVLNGAQLFSLNKDELRTVCPEGARVYSQITVQKAALEDSSGSSELQEIMRRRQEKISAAASDSGVESFDEGSSH
